Results from patent publication US20260250410A1 (SICHUAN HUIYU PHARMACEUTICAL, published 2026).
Numbering of substitutions follows the chain as printed.

T1: human CDCP1 on tumor cells (human, UniProt Q9H5V8 30-836)
T1 construct: whole, on cells; cell line is named under assay or readout
T1 sequence (looked up): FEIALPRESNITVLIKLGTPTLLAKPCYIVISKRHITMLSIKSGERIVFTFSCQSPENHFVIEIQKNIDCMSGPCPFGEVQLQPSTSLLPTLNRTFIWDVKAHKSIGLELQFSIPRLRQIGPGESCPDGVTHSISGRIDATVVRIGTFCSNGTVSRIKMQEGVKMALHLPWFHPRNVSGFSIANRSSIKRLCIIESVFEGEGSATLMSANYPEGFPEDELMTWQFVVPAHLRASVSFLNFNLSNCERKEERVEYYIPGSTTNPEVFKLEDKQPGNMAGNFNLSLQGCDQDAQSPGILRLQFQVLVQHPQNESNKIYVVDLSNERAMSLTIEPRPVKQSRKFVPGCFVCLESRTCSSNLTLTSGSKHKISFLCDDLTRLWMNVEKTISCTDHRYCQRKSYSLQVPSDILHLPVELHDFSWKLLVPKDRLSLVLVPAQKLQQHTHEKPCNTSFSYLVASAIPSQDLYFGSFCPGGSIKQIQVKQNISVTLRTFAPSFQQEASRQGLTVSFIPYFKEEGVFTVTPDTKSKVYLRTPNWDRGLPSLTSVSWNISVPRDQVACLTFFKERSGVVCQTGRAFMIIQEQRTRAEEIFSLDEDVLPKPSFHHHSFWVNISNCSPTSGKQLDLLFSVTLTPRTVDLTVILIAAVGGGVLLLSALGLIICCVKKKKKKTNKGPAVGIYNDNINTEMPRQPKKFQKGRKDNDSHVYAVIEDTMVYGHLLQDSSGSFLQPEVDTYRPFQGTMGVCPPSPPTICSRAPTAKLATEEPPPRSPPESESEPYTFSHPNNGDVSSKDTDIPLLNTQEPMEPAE

B1: 6A7 (antibody, V domains shown)
VH: EVQLKESGAELVRPGASVKVSCKASGYSFTSYWMNWVKQRPGQGLEWIGMIHPSDSETKLNQKFRDRASLTVDKSSSTAYMQLSSPTSEDSAVYYCTINYESFYYAMDYWGQGTTVTVSS
VL: DIVMTQSPASLAVSLGQRATISCRASKSVSTSGYSYMHWYQQKPGQPPKLLLYLASNLESGVPARFSGSGSGADFTLNIHPVEEEDAATYYCLHSRELPYTFGGGTKLEIK
notes: murine hybridoma mAb
B2: 8E5 (antibody, V domains shown)
VH: EVQLKESGPELKKPGETVKISCKASGYTLTDFSMHWLKQAPGKGLKWMGWINTETGAPTYADDFKGRFALSLDTSANTAYLQINNLKNEDTATYFCSRGRDYDPHFDYWGQGTTVTVSS
VL: EIVLTQSPATLSVTPGDRVSLSCRASQSISDFLHWYQQRSHESPRLLIKYASQSISGIPSRFGGSGSGSDFTLNINTVEPEDVGMYYCQSAHSFPYTFGGGTKLEIK
notes: murine hybridoma mAb; also called 8ES
B3: 3F1A11 (antibody, V domains shown)
VH: EVKLVESGPGLVKPSQSLSLTCTVTGYSITSDYAWNWIRQFPGNKLEWMGYISYNTYTSYNPSLKSRISVTRDTSKNQFFLQLKSVTIEDTATYFCAGGDYYGTGAVDYWGQGTTVTVSS
VL: EIVLTQSPLSLPVSLGDQASISCRSRQTLVHTNGNTYLDWYLQKPGQSPKLLIYKVSIRFSGVPDRFSGSRSGTDFTLKISRVEAEDLGIYYCFQGSHVPWTFGGGTKLEIK
notes: murine hybridoma mAb
B4: 5B8 (antibody, V domains shown)
VH: EVQLKESGGGLVQPGGSLRISCATSGLTFTHYHMSWVRQPPGKAPEWLAIIRNKAYGYTTDYSASVRGRFTISRDDSQSILYLQMNTLRAEDSATYYCVREGGYGYDGTFAYWGQGTTVTVSS
VL: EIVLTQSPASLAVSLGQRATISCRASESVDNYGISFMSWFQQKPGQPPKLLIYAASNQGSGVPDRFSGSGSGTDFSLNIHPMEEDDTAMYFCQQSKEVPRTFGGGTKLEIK
notes: murine hybridoma mAb
B5: 8C9 (antibody, V domains shown)
VH: B4 VH with A90P
VL: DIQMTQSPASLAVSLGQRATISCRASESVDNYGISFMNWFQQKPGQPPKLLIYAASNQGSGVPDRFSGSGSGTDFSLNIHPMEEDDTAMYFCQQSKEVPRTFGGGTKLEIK
notes: murine hybridoma mAb
B6: G10F6 (antibody, V domains shown)
VH: EVKLVESGPGILQPSQTLSLTCSFSGFSLSTSGMGVSWVRQPSGKGLEWLAHIYWDDDKRYNPSLKGRLTISKDTPRNQVFLEITSVDTTDTATYYCARVPGNWDEDAMDYWGQGTTVTVSS
VL: DIQMTQSPLSLPVSLGDQASISCRSSQNIVHTNGNTYLEWYLQKVGQSPKLLIYKVSNRFSGVPDRFSGSGSGTDFTLKISRVEAEDLGVYYCFQGSHVPYTFGGGTKLEIK
notes: murine hybridoma mAb
B7: 3C11 (antibody, V domains shown)
VH: EVQLQQSGTVLARPGASVKMSCKASGYNFISYWLHWIKQRPGQGLEWIGGIYPGNTDTTYNQKFKGKAKVTAVTSATTAYMELSSLTNEDSAVYYCIRYDYDRGMDYWGQGTTVTVSS
VL: DIQMTQSPSSFSVSLGDRVTITCRASEDIYYRLAWYQQKPGNAPRLLISGATALETGVPSRFSGSGSGKDYTLSITSLQTEDVATYYCQHYWNIPWTFGGGTKLEIK
notes: murine hybridoma mAb
B8: 3B12H5 (antibody, V domains shown)
VH: EVQLQQSGTVLARPGASVKMSCKASGYSFTIYWVHWVKQRPGQGLEWIGAVYPGNDDTSYNQNFKGKAKLTAVTSATTAYMELSSLTIDDSAVYYCTRHTYDEVFDYWGQGTTVTVSS
VL: B7 VL with Q3V, F11L, R24K, A51G, A53N, T56A, V58I, T85I, I94T
notes: murine hybridoma mAb; also called 3B12HS
B9: 12E6 (antibody, V domains shown)
VH: EVQLKESGPGILQPSQTLSLTCSFSGFSLSTSGMGVGWIRQPSGKGLEWLAHIWWDDVKLYNPALKSRLTISKETSNNQVFLKIASVDAADTATYYCARIDHGYGSNYWDFDVWGAGTTVTVSS
VL: DIVMTQAAPSVPVTPGGSVSISCRSTKSLLHSDGKTYLYWFLQRPGQSPQLLIYRMSNLASGVPDRFSGSGSGTAFTLRISRVEAEDVGVYYCMQHLEYPFTFGSGTKLEIK
notes: murine hybridoma mAb

molecular target: T1, human CDCP1 on tumor cells; test: flow cytometry, PC3 cells
Procedure: Flow cytometry was used to detect the binding capacity of antibody to tumor cells. […] 2.0×10⁴ tumor cells were added per well, respectively, and 50 μL (PBS+2% FBS) were added, and after blocking at room temperature with an Fe blocker (Human TruStain FcX™, Biolegend, 422302) for 10 mins, an anti-CDCP1 murine monoclonal antibody at a final concentration of 200 nM was added. The obtained mixture was subjected to a 3-fold serial dilution across 8 concentration points, and incubated at 4° C. for 30 mins, and then incubated with a secondary antibody (PE anti-human IgG Fc Antibody, Biolegend, 410708), detection was performed using a flow cytometer.

Row | EC50 [nM] | Binder
1 | 1.35 | B1
2 | 0.63 | B2
3 | 0.41 | B3
4 | 0.91 | B4
5 | 0.4 | B5
6 | 0.23 | B6
7 | 0.23 | B7
8 | 0.55 | B8
9 | 10.1 | B9
